Consider four molecules from US10047345B2, “Culturing of mesenchymal stem cells with FGF4 and nicotinamide” (Gamida-Cell Ltd., priority 2012, dated 2018).

Entries after “also recorded” stand apart in the source; their conditions may differ.

One test has as its system MSCs. As to conditions: cited from earlier work.
The subject of test [1] is mesenchymal stem cells. The test can be described thus: Cell size of cultured MSCs (Cedex cell counter). Type of test: cell-based, human. As to conditions: between days 10-32 of culture. As for the experimental part: Cell size was measured using Cedex Automated Cell Counter (Innovatis). The cells were diluted 1:2 in Trypan Blue (Sigma) and cell size was measured automatically under microscope.
(§1) Mesenchymal stem cells were selected and cultured in the presence of particular growth factors (basic fibroblast growth factor—bFGF, heparin binding epidermal growth factor—HB-EGF, fibroblast growth factor 4—FGF-4 and platelet derived growth factor, homodimer, subunit B, PDGF-BB) in the presence and absence of nicotinamide for three or four passages and the number and size of the cells was calculated.

Test [2] concerns umbilical cord-derived CD133+ hematopoietic stem cells. The test can be described thus: Differentiation and proliferation of ex-vivo cultured hematopoietic stem cells (FACS surface markers). The test is classed as cell-based. As for the experimental part:
Umbilical cord-derived hematopoietic stem cells were isolated using CD133 microbeads and CliniMACS® separator (Miltenyi, Inc. Auburn, Calif.), and cultured for 3 weeks in MEMα supplemented with 50 ng/ml TPO, IL6, SCF, Flt3, fetal bovine serum, ±2.5 or 5 mM nicotinamide, and/or 10, 50 or 200 ng/ml FGF4. After 3 weeks in culture the cells were stained for surface markers (CD38, CD133, CD33, CD19) and the cell populations determined by FACS analysis (see below). Results are expressed as percentage of total population assayed.
At different time points the cells were detached with 0.25% trypsin-EDTA. The cells were washed with a PBS solution containing 1% BSA, and stained (at 4° C. for 30 min) with either fluorescein isothiocyanate (FITC) or phycoerythrin (PE)-conjugated antibodies: 105 PE, 105 FITC (Serotec, Raleigh, N.C.), 45 FITC, 14 FITC, HLA-DR FITC, 106 PE, 31 PE (BD, Franklin Lakes N.J.), 34 PE (Dako, Glostrup, Denmark), 73 PE, HLA class1 PE, 49b PE (Pharmingen, San Diego, Calif.), 29 PE, 44 PE, 54 FITC, 59 PE, 90 PE (BioLegend, San Diego, Calif.). CD133—(AC141) PE (Miltenyi, Auburn, Calif.), CD38 FITC (Dako, Glostrup, Denmark), CD19 FITC (BD Biosciences, Franklin Lakes N.J.), CD33 FITC (BD Bioscience, Franklin Lakes N.J.).
The cells were then washed in the above buffer and analyzed using a FACScalibur® flow cytometer (Becton Dickinson, Franklin Lakes N.J.). The cells were passed at a rate of up to 1000 cells/second, using a 488 nm argon laser beam as the light source for excitation. Emission of 10000 cells was measured using logarithmic amplification, and analyzed using the CellQuest software (Becton Dickinson). Cells stained with FITC- and PE-conjugated isotype control antibodies were used to determine background fluorescence.
Umbilical cord-derived CD133+ hematopoietic stem cells were isolated and cultured for 3 weeks in medium supplemented with early-acting growth factors and fetal bovine serum, nicotinamide and/or FGF4. After 3 weeks in culture the cells were stained for surface markers (CD38, CD133, CD19) and the cell populations determined by FACS analysis. Cell proliferation was assessed by counting total cells at three weeks.

For test [3], the system named is mesenchymal stem cells. The test can be described thus: Percent of MSC (CD105+CD45-) by FACS. As to conditions: NAM 5 mM, FGF4 50 ng/ml, PDGF-BB 50 ng/ml. The test is classed as cell-based, human. As for the experimental part: At different time points the cells were detached with 0.25% trypsin-EDTA. The cells were washed with a PBS solution containing 1% BSA, and stained (at 4° C. for 30 min) with either fluorescein isothiocyanate (FITC) or phycoerythrin (PE)-conjugated antibodies: 105 PE, 105 FITC (Serotec, Raleigh, N.C.), 45 FITC, 14 FITC, HLA-DR FITC, 106 PE, 31 PE (BD, Franklin Lakes N.J.), 34 PE (Dako, Glostrup, Denmark), 73 PE, HLA class1 PE, 49b PE (Pharmingen, San Diego, Calif.), 29 PE, 44 PE, 54 FITC, 59 PE, 90 PE (BioLegend, San Diego, Calif.). […]
The cells were then washed in the above buffer and analyzed using a FACScalibur® flow cytometer (Becton Dickinson, Franklin Lakes N.J.). […] Emission of 10000 cells was measured using logarithmic amplification, and analyzed using the CellQuest software (Becton Dickinson). Cells stained with FITC- and PE-conjugated isotype control antibodies were used to determine background fluorescence.
as §1

On to EGF: Epidermal growth factor, for which, in the test with MSCs (Tamama et al. 2010), the “increase in the number of colony-forming units of MSCs” value is on record as 25%.

B1: FGF4: Fibroblast growth factor 4, the FGF4 gene product, a 176 AA long protein (protein, UniProt P08620 31-206, looked up)
Fibroblast growth factor 4: APTAPNGTLEAELERRWESLVALSLARLPVAAQPKEAAVQSGAGDYLLGIKRLRRLYCNVGIGFHLQALPDGRIGGAHADTRDSLLELSPVERGVVSIFGVASRFFVAMSSKGKLYGSPFFTDECTFKEILLPNNYNAYESYKYPGMFIALSKNGKTKKGNRVSPTMKVTHFLPRL
Consider B1, for which the “cell diameter of cultured MSCs” value in the test on mesenchymal stem cells [1] is reported as “greater than 20 μm”. In test [2] (3 weeks culture, nicotinamide 2.5 or 5 mM, FGF4 10 to 200 ng/ml), the “degree of differentiation of hematopoietic progenitor cells (CD38 and CD133-expressing fraction)” value was “without any effect on the degree of differentiation; also recorded: neither improved nor reduced”. The “total cell proliferation in hematopoietic cultures” value in test [2] (3 weeks, FGF4 with or without nicotinamide, results not shown) is recorded as “without any discernible effect”. Also, the “fraction of undifferentiated early progenitors (CD38-CD133+)” value in test [2] (3 weeks, FIG. 35) is reported as “absence of any significant effect”. In addition, the “differentiation (CD38+ cells)” value in test [2] (3 weeks, FIG. 36) is reported as “absence of any significant effect”. In test [2] (3 weeks, FIG. 37), the “myeloid lineage differentiation (CD33+ cells)” value is “moderate enhancement”. Also, in test [2] (3 weeks, FIG. 38), the “lymphoid lineage differentiation (CD19+ cells)” value is listed as “absence of any significant effect”. Moreover, the “abundance of committed myeloid or lymphoid cells (CD33, CD19)” value in test [2] (three week cultures) is recorded as “without any effect”.

B2: PDGF-BB: platelet derived growth factor, homodimer, subunit B (protein, UniProt P01127 82-190, looked up)
Platelet-derived growth …: SLGSLTIAEPAMIAECKTRTEVFEISRRLIDRTNANFLVWPPCVEVQRCSGCCNNRNVQCRPTQVQLRPVQVRKIEIVRKKPIFKKATVTLEDHLACKCETVAAARPVT
Turning to B2, the “fraction of MSC (CD105+CD45-) versus cells other than MSCs in the culture” value in the test with mesenchymal stem cells [3] was “contaminated with a higher fraction of cells other than MSCs”.

B3: BMP-3: member of the transforming growth factor beta family (protein, UniProt P12645 363-472, looked up)
Bone morphogenetic protein 3: QWIEPRNCARRYLKVDFADIGWSEWIISPKSFDAYYCSGACQFPMPKSLKPSNHATIQSIVRAVGVVPGIPEPCCVPEKMSSLSILFFDENKNVVLKVYPNMTVESCACR
On to B3, for which, in the test with MSCs (Stewart et al. 2010), the “increase of MSC proliferation” value was “threefold”.
